Source: article PMC3791466, “Structure of a helicase–helicase loader complex reveals insights into the mechanism of bacterial primosome assembly” (Nature Communications, 2013)
Each block holds one binder with its values, some of them ahead of it.

Experiments:
[1] = target: T1, Bacillus stearothermophilus helicase DnaB (B. stearothermophilus, UniProt Q9X4C9 1-454); assay: crystal structure; 570-kDa complex of BstDnaB, BsuDnaI and HBD of BstDnaG, molecular replacement, 7.5 Å; proteins in the crystals confirmed by tryptic digestion and mass spectrometry; conditions: both partners purified
T1 construct: replicative DNA helicase DnaB of Bacillus stearothermophilus; N-terminal domain, linker and C-terminal RecA-fold domain; both the NTD and the CTD are in the structure; also called BstDnaB; hexameric helicase ring
T1 sequence: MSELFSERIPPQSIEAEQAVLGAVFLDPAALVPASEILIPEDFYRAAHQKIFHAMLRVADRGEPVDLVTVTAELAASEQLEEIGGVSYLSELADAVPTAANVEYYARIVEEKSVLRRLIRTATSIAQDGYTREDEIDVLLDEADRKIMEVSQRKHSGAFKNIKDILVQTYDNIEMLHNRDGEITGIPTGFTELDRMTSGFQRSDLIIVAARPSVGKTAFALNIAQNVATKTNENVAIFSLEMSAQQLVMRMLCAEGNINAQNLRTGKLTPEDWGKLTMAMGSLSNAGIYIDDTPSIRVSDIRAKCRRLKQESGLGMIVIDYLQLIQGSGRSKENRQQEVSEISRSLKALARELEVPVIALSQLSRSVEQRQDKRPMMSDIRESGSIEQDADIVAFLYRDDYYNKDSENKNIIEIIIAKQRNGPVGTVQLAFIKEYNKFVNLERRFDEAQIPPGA

[2] = target: T1, Bacillus stearothermophilus helicase …; assay: crystal structure; another crystal form obtained under different conditions, content shown by molecular replacement; conditions: both partners purified
[3] = target: T2, Bacillus subtilis helicase loader protein DnaI (B. subtilis), P06567; assay: SEC-MALS; gel filtration and multiple-angle light scattering of BsuDnaI alone at 10 mg/ml; conditions: remark: other sources report otherwise
T2 chain: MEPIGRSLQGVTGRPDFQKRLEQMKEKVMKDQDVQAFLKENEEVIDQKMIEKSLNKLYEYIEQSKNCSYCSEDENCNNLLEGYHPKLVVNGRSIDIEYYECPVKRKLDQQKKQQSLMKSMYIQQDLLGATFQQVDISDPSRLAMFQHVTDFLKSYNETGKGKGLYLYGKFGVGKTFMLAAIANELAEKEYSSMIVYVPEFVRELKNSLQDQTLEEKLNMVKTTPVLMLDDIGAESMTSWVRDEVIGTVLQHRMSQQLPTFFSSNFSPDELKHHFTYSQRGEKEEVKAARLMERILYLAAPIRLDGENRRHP

[4] = target: T2, Bacillus subtilis helicase loader …; assay: crystal structure; 570-kDa complex of BstDnaB, BsuDnaI and HBD of BstDnaG, molecular replacement, 7.5 Å; proteins in the crystals confirmed by tryptic digestion and mass spectrometry; conditions: remark: other sources report otherwise

- stoichiometry N [1]: 3 HBDs per helicase hexamer
- stoichiometry N [2]: 3 HBDs per DnaB hexamer
B1: helicase-binding domain (HBD) of Bacillus stearothermophilus primase DnaG (domain or fragment, B. stearothermophilus)
chain: KLLPAFQNAERLLLAHMMRSRDVALVVQERIGGRFNIEEHRALAAYIYAFYEEGHEADPGALISRIPGELQPLASDVSLLLIADDVSEQELEDYIRHVLNRPKWLMLKVKEQEKTEAERRKDFLTAARIAKEMIEMKKMLSSS
notes: also called HBD of BstDnaG; HBD of primase DnaG

- percent monomer at 10 mg/ml [3]: 93%
- stoichiometry N [3]: 2
- stoichiometry N [4]: 6
- stoichiometry N [1]: 3 loader dimers per helicase hexamer
B2: Bacillus subtilis helicase loader protein DnaI (natural protein, B. subtilis)
chain: T2 chain
notes: primosomal helicase loader DnaI of Bacillus subtilis 168, cloned by PCR from genomic DNA into NcoI-XhoI of pET21d(+); the reverse primer has no stop codon before XhoI, so a C-terminal His tag of the vector is surmised; No cleavage of the tag is described; also called BsuDnaI
